From patent US20240201167A1 (ALBERT EINSTEIN COLLEGE OF MEDICINE, published 2024) come the findings set out here.

Where a chain is given by its changes, count along the chain named. Names and notes keep the numbering of the source.

First the molecules themselves.
B1: human p75NTR F136H on cells (receptor)
chain: KEACPTGLYTHSGECCKACNLGEGVAQPCGANQTVCEPCLDSVTFSDVVSATEPCKPCTECVGLQSMSAPCVEADDAVCRCAYGYYQDETTGRCEACRVCEAGSGLVHSCQDKQNTVCEECPDGTYSDEANHVDPCLPCTVCEDTERQLRECTRWADAECEEIPGRWITRSTPPEGSDSTAPSTQEPEAPPEQDLIASTVAGVVTTVMGSSQPVVTRGTTDNLIPVYCSILAAVVVGLVAYIAFKRWNSCKQNKQGANSRPVNQTPPPEGEKLHSDSGISVDSQSLHDQQPHTQTASGQALKGDGGLYSSLPPAKREEVEKLLNGSAGDTWRHLAGELGYQPEHIDSFTHEACPVRALLASWATQDSATLDALLAALRRIQRADLVESLCSESTATSPV
notes: Fluorescent-tagged point mutant
B2: human p75NTR P150H on cells (receptor)
chain: B1 chain with H108F, P122H
notes: as for B1
B3: human p75NTR L165H on cells (receptor)
chain: B1 chain with H108F, L137H
notes: Fluorescent-tagged point mutant; also called LEU165H*
B4: human p75NTR L165K on cells (receptor)
chain: B1 chain with H108F, L137K
notes: Fluorescent-tagged point mutant; also called LEU165K*
B5: human p75NTR F136K on cells (receptor)
chain: B1 chain with H108K
notes: as for B1
B6: human p75NTR P150K on cells (receptor)
chain: B1 chain with H108F, P122K
notes: as for B1

One experiment addresses T1, human B7-1 N82E on cells (Homo sapiens, UniProt P33681 35-280).
T1 construct: C-terminally fused to mCherry; also called ASN82 GLU
T1 chain: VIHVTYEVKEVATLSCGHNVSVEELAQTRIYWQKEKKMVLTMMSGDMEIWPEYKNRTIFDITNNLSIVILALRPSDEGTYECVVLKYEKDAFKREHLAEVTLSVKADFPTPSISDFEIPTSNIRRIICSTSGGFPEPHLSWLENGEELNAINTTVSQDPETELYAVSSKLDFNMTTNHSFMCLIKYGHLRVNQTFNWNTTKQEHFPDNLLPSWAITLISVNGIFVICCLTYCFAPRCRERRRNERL
Nature of the experiment: cell-cell binding, flow cytometry; percent of the wild-type pair.
With B1, the percent binding amounted to 66%.

As to B2, the percent binding is 10%.

B3 gave a percent binding of 15%.

B4 yielded a percent binding of 11%.

The molecule B5 showed a percent binding of 77%.

With B6, the percent binding stood at 13%.

In another experiment the target is T2, human B7-1 K120D on cells (Homo sapiens, UniProt P33681 35-280).
T2 construct: mCherry-tagged point mutant; also called LYS120 ASP
T2 chain: T1 chain with E48N, K86D
The experiment is described as above.
B1 gave a percent binding of 15%.

B2 showed a percent binding of 16%.

The molecule B3 showed a percent binding of 19%.

The molecule B4 showed a percent binding of 20%.

In the case of B5, the percent binding was found to be 16%.

Turning to B6, the percent binding worked out at 17%.

The target of a further experiment is T3, human B7-1 K139D on cells (Homo sapiens, UniProt P33681 35-280).
T3 construct: mCherry-tagged point mutant; also called LYS139ASP; LYS139 ASP
T3 chain: T1 chain with E48N, K105D
Described as above.
The molecule B1 displayed a percent binding of 13%.

In the case of B2, the percent binding came out at 14%.

Regarding B3, the percent binding stood at 25%.

As to B4, the percent binding stood at 19%.

In turn, B5 yielded a percent binding of 18%.

The molecule B6 yielded a percent binding of 11%.

For another experiment, the target named is T4, human B7-1 R63D on cells (Homo sapiens, UniProt P33681 35-280).
T4 construct: mCherry-tagged point mutant; also called ARG63 ASP
T4 chain: T1 chain with R29D, E48N
The experiment is described as above.
Molecule B1 yielded a percent binding of 25%.

B2 registered a percent binding of 13%.

For B3, the percent binding was 26%.

In turn, B4 had a percent binding of 18%.

On to B5, for which the percent binding is 29%.

The molecule B6 displayed a percent binding of 14%.

For another experiment, the target named is T5, human B7-1 (CD80), full length, expressed on HEK 293 cells (Homo sapiens, UniProt P33681 35-280).
T5 construct: also called hB7-1; B7-1-mCherry
T5 sequence: T1 chain with E48N
The experiment is described as above.
Consider B1, for which the percent binding came out at 90%.

Molecule B2 displayed a percent binding of 38%.

In the case of B3, the percent binding came out at 64%.

Molecule B4 registered a percent binding of 83%.

B5 displayed a percent binding of 81%.

Molecule B6 gave a percent binding of 69%.

In a further experiment the target is T6, human B7-1 K127D on cells (Homo sapiens, UniProt P33681 35-280).
T6 construct: mCherry-tagged point mutant; also called LYS127 ASP
T6 chain: T1 chain with E48N, K93D
Described as above.
B1 displayed a percent binding of 16%.

Consider B2, for which the percent binding is 11%.

The molecule B3 came in with a percent binding of 25%.

B4 had a percent binding of 19%.

In the case of B5, the percent binding came to 23%.

B6: the percent binding amounted to 15%.
